Values of other authors as cited in PMC4192513, “A Novel Protein-Protein Interaction in the RES (REtention and Splicing) Complex” (The Journal of Biological Chemistry, 2014).
“Also recorded” adds a separate entry of the source.

Tested on: RES complex (Snu17p, Bud13p, Pml1p)
Settings: ref [4]
Text: Previous biochemical analyses have shown that Snu17p binds Bud13p directly ([4], [6]). Based on a mutational analysis of the invariant Bud13p Trp^232 residue ([6]), the interaction of Bud13p with the Snu17p RRM has been proposed to resemble a typical UHM-ULM interaction. […] The structural findings are consistent with our initial mutagenesis analysis, which was guided by the recognition features described for the UHM family.

B1: W232A: single W232A mutant of Bud13p, from ref [4] (protein, UniProt P46947 1-266, looked up, variant W232A)
Pre-mRNA-splicing factor CWC26: MALHQYLSETYGPTKPKNKTKKKKKESKSDANSDKTSLIVKERLSTLQQEQEKSGVASFSKFDKQKSKNIWKNLETNELSHAITHPSASSITGNESKNDLKEIRAQEPLVTVADKSKTRKTIYRDAQGHKIQEDSKIDDSSFSRSKYEDEKAAEREQYLKNLNMGDVQKLGINVDAHDKKKNQTASSLTIEDPAITFTHDKERTVKTSLLGRKLYDKPAPENRFAIMPGSRADGVHRSNGFEEKWFAKQNEINEKKVQSYTLQEDY
interaction with Snu17p / complex formation of W232A mutant: did not abolish its interaction with Snu17p; also recorded: did not prevent complex formation
